Data from PMC4813160.

Target: Isocitrate dehydrogenase (IDH) from B. longum (BlIDH) (Bifidobacterium longum subsp. infantis ATCC 15697)
Test: SEC; gel filtration on a 10/300 Superdex 200 column, 50 mM NaH2PO4 and 150 mM NaCl at pH 7.2; standards ovalbumin, conalbumin, aldolase, ferritin, thyroglobulin; single symmetrical peak, native mass 83 kDa against about 45 kDa for the subunit

stoichiometry N: 2
Substance: Isocitrate dehydrogenase (IDH) from B. longum (BlIDH) (enzyme)
